Laboratory results from paper doi:10.1101/2021.02.07.430097, “Molecular and structural mechanisms of ZZ domain-mediated cargo recognition by autophagy receptor Nbr1” (bioRxiv, 2021).

B1: Ams1 (full length) of the Ams1-Nbr1 fusion protein (enzyme, S. pombe, UniProt Q9UT61 2-1077, looked up)
chain: TLFPVLNNTPVGKQVDSIYESRLDQFLSEGQYRDFNLPSVYDHARIDNPSGDVNNDLSKGFVDLKVYRVPDLSRPSFNEVVGHKKFDETASKGDTFGPSWATFWFEVHIRLPKSWAKYEQVIFQWNCDNEGLVYSQDGVPLQAFSGSERTDFILPDSWKTTEDTFYIEMACNGMFGTGAGSQIAPPDPNRYFTLTKADLVAPNLPAMALAYDFLLMQQCVKQLPSNCWQKYKARQICNDIMNTFHPNDLSTINECRNLAKAFLGNDIDSEAVFEKNNDKANVFAIGHCHIDTAWLWPFAETRRKIVRSWATQMNIMDRYPEYQFVCSQALQYLWLKEDHPDVFEKLKEYVNQNKFIPIGGSWVEHDTNIPNGESLIRQFLLGQHFFEKEFGVRCRTFWLPDTFGYSSQIPQICRLCGMDRFLTQKLSWNNINSFPTSTFNWVALDGSQVICHMPPANTYTADTNVNDVLHSIDQHKNLVNDQAGLLVFGIGDGGGGPTPEMLEKLRRCKGIANTVGYLPNVKLGNTVDEFFDGILKRTNAGQTLPSWNGELYFEFHRGTYTTQAELKKLMRKVEIALHDAEYVSTLASIFSKDYSYPKESLQDLWRDTLLCQFHDVLPGSCIEMVYKDAIPIMSKVLKNTEALLWQAIEQLGFKKASSSDNKEQLCLLNTLPWNVRGVITETEENKLVYFESCDGKGILTAAHTSLKHPAAAYQKDDNFILVNDHLRVTIAPNGLILSLFDLHKEREILDLKSGKNHAGANQYVLFEDTPLSWQAWDTEVFSLEKYEVLDKGKVSIKESGPLRASVVVDIPISELSHMKATISLEGYNDCSEFTGVNFTCEVDWHESCKFLKVEFPVDIHSEFASYETQFGITKRPTHYNTSWDVAKFEVCHQKFADYSDFTYGVSVLNDCKYGFSTHGNLMRLSLLRSPKQPDAHADMGKHTIRYAVYPHSKPLDSSTVRAAHKFNSNFRLLTRASDTANLDIFDAFQLVGEPNVILSHIKMAEKGKSIILRVYESLGGKSRARLVIKSLTVASVTKCNGLEEDLEELCTLKSNDYYEVPIELRAFEIATFKVNL
notes: S. pombe alpha-mannosidase Ams1 (SPAC513.05), full length; the first methionine is removed in vivo, T2 is the most N-terminal residue in the density map; residues 2-1077 are in the model; written as a molecule of its own for the pair; also called Ams1_1; Ams1_3; source: S. pombe, Pnmt1 promoter, purified (GFP-Trap beads, released by 3C protease)

Experiments:
[1] = molecular target: the molecule itself; experiment: cryo-EM structure; Ams1-linker-Nbr1(53-180)-MBP fusion protein purified from S. pombe; 2.4 Å, D2 symmetry
[2] = molecular target: B1; experiment: as above; details: both partners purified

stoichiometry N [2] | Binder | stoichiometry N [1]
– | B1 | 4
4 Nbr1-ZZ1 molecules per Ams1 tetramer | Nbr1(53-180) of the Ams1-Nbr1 fusion protein (domain or fragment, S. pombe, UniProt Q9P792 53-180, looked up, S. pombe Nbr1 residues 53-180 (ZZ1 and ZZ2); residues 59-108 are in the model; written as a molecule of its own for the pair; also called Nbr1-ZZ1; ZZ1; source: S. pombe, Pnmt1 promoter, purified (GFP-Trap beads, released by 3C protease); not shown: MBP, C-terminal, kept; GFP, C-terminal, cleaved) PTLRSSSVACNTCLKIIRNDSFHCTKCFDFDVCRDCYAKQAFLHPCPKPHFVLVRSSIPSVASLTCSVNSMSVSPQSNFMYAICDHCEQPIHNVRYKCSVCDDYDICESCLTDNSHSNTHAFVRITKA | –
